Laboratory results taken from patent US20260274985A1 (MYTHIC THERAPEUTICS, published 2026).

T1: Human TROP2 Protein, His Tag (human, UniProt P09758 27-274)
T1 construct: Bought protein; also called TACSTD2; not shown: His tag
T1 sequence (looked up): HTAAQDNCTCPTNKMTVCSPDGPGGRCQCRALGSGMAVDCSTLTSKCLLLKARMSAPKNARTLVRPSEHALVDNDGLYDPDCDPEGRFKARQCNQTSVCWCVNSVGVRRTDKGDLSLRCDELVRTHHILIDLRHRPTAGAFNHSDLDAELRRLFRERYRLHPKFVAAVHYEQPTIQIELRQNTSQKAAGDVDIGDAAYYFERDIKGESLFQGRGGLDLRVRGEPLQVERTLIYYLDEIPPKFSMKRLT

T2: Human TROP2 Protein, His Tag (Acro Biosystems) (human, UniProt P09758 27-274)
T2 construct: Soluble analyte of the Octet assay; also called TACSTD2; not shown: His tag
T2 sequence (looked up): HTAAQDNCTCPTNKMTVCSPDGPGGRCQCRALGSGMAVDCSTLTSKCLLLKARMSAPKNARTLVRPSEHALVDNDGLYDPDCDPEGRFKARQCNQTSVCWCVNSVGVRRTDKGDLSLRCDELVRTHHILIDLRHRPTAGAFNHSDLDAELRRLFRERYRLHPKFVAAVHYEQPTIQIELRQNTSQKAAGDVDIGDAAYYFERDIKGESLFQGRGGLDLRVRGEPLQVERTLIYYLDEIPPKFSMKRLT


Key:
[1] = biological target: T1, Human TROP2 Protein, His Tag; test: BLI (Octet)
[2] = biological target: T2, Human TROP2 Protein, His Tag (Acro …); test: BLI (Octet)

Binder | binding result [1] | binding result [2]
MYT11658 (antibody, V domains shown, IgG from supernatant; His at HCV position 62; also called datopotamab variant H2 13) VH: QVQLVQSGAEVKKPGASVKVSCKASGYTFTTAGMQWVRQAPGQGLEWMGWINTHSGVPKYAHDFKGRVTISADTSTSTAYLQLSSLKSEDTAVYYCARSGFGSSYWYFDVWGQGTLVTVSS VL: DIQMTQSPSSLSASVGDRVTITCKASQDVSTAVAWYQQKPGKAPKLLIYSASYRYTGVPSRFSGSGSGTDFTLTISSLQPEDFAVYYCQQHYITPLTFGQGTKLEIK | binds | –
MYT13176 (antibody, V domains shown, Sacituzumab HC-LC pairing variant; IgG) VH: QVQLQQSGSELKKPGASVKVSCKASGYTFTNHGMNWVKQAPGQGLKWMGWINTYTGEPTYTDDFKGRFAFSLDTSVSTAYLQISSLKADDTAVYFCARGGFGSSYWYFDVWGQGSLVTVSS VL: DIQLTQSPSSLSASVGDRVSITCKASQDVSIAVAWYQQKPGKAPKLLIYSHSYRYTGVPDRFSGSGSGTDFTLTISSLQPEDFAVYYCQQHYITPLTFGAGTKVEIK | – | binds
MYT13163 (antibody, V domains shown, Sacituzumab HC-LC pairing variant; IgG) VH: QVQLQQSGSELKKPGASVKVSCKASGYTFTNYGMNWVKQAPGQGLKWMGWINTYTGEPTYTHDFKGRFAFSLDTSVSTAYLQISSLKADDTAVYFCARGGFGSSYWYFDVWGQGSLVTVSS VL: DIQLTQSPSSLSASVGDRVSITCKASQDVHIAVAWYQQKPGKAPKLLIYSASYRYTGVPDRFSGSGSGTDFTLTISSLQPEDFAVYYCQQHYITPLTFGAGTKVEIK | – | binds
MYT13167 (antibody, V domains shown, Sacituzumab HC-LC pairing variant; IgG) VH: QVQLQQSGSELKKPGASVKVSCKASGYTFTNYGMNWVKQAPGQGLKWMGWINTYTGEPTYTDDFKHRFAFSLDTSVSTAYLQISSLKADDTAVYFCARGGFGSSYWYFDVWGQGSLVTVSS VL: DIQLTQSPSSLSASVGDRVSITCKASQDVHIAVAWYQQKPGKAPKLLIYSASYRYTGVPDRFSGSGSGTDFTLTISSLQPEDFAVYYCQQHYITPLTFGAGTKVEIK | – | binds
MYT13161 (antibody, V domains shown, Sacituzumab HC-LC pairing variant; IgG) VH: QVQLQQSGSELKKPGASVKVSCKASGYTFTNYHMNWVKQAPGQGLKWMGWINTYTGEPTYTDDFKGRFAFSLDTSVSTAYLQISSLKADDTAVYFCARGGFGSSYWYFDVWGQGSLVTVSS VL: DIQLTQSPSSLSASVGDRVSITCKASQDVHIAVAWYQQKPGKAPKLLIYSASYRYTGVPDRFSGSGSGTDFTLTISSLQPEDFAVYYCQQHYITPLTFGAGTKVEIK | – | binds
MYT13164 (antibody, V domains shown, Sacituzumab HC-LC pairing variant; IgG) VH: QVQLQQSGSELKKPGASVKVSCKASGYTFTNYGMNWVKQAPGQGLKWMGWINTYTGEPTYTDHFKGRFAFSLDTSVSTAYLQISSLKADDTAVYFCARGGFGSSYWYFDVWGQGSLVTVSS VL: DIQLTQSPSSLSASVGDRVSITCKASQDVHIAVAWYQQKPGKAPKLLIYSASYRYTGVPDRFSGSGSGTDFTLTISSLQPEDFAVYYCQQHYITPLTFGAGTKVEIK | – | binds
MYT11673 (antibody, V domains shown, IgG from supernatant; also called datopotamab variant H3 11) VH: QVQLVQSGAEVKKPGASVKVSCKASGYTFTTAGMQWVRQAPGQGLEWMGWINTHSGVPKYAEDFKGRVTISADTSTSTAYLQLSSLKSEDTAVYYCARSGFGSSYWHFDVWGQGTLVTVSS VL: DIQMTQSPSSLSASVGDRVTITCKASQDVSTAVAWYQQKPGKAPKLLIYSASYRYTGVPSRFSGSGSGTDFTLTISSLQPEDFAVYYCQQHYITPLTFGQGTKLEIK | binds | –
MYT11661 (antibody, V domains shown, IgG from supernatant; His at HCV position 65; also called datopotamab variant H2 16) VH: QVQLVQSGAEVKKPGASVKVSCKASGYTFTTAGMQWVRQAPGQGLEWMGWINTHSGVPKYAEDFHGRVTISADTSTSTAYLQLSSLKSEDTAVYYCARSGFGSSYWYFDVWGQGTLVTVSS VL: DIQMTQSPSSLSASVGDRVTITCKASQDVSTAVAWYQQKPGKAPKLLIYSASYRYTGVPSRFSGSGSGTDFTLTISSLQPEDFAVYYCQQHYITPLTFGQGTKLEIK | binds | –
MYT11659 (antibody, V domains shown, IgG from supernatant; His at HCV position 63; also called datopotamab variant H2 14) VH: QVQLVQSGAEVKKPGASVKVSCKASGYTFTTAGMQWVRQAPGQGLEWMGWINTHSGVPKYAEHFKGRVTISADTSTSTAYLQLSSLKSEDTAVYYCARSGFGSSYWYFDVWGQGTLVTVSS VL: DIQMTQSPSSLSASVGDRVTITCKASQDVSTAVAWYQQKPGKAPKLLIYSASYRYTGVPSRFSGSGSGTDFTLTISSLQPEDFAVYYCQQHYITPLTFGQGTKLEIK | binds | –
MYT11662 (antibody, V domains shown, IgG from supernatant; His at HCV position 66; also called datopotamab variant H2 17) VH: QVQLVQSGAEVKKPGASVKVSCKASGYTFTTAGMQWVRQAPGQGLEWMGWINTHSGVPKYAEDFKHRVTISADTSTSTAYLQLSSLKSEDTAVYYCARSGFGSSYWYFDVWGQGTLVTVSS VL: DIQMTQSPSSLSASVGDRVTITCKASQDVSTAVAWYQQKPGKAPKLLIYSASYRYTGVPSRFSGSGSGTDFTLTISSLQPEDFAVYYCQQHYITPLTFGQGTKLEIK | binds | –
MYT11667 (antibody, V domains shown, IgG from supernatant; His at HCV position 101; also called datopotamab variant H3 05) VH: QVQLVQSGAEVKKPGASVKVSCKASGYTFTTAGMQWVRQAPGQGLEWMGWINTHSGVPKYAEDFKGRVTISADTSTSTAYLQLSSLKSEDTAVYYCARSGHGSSYWYFDVWGQGTLVTVSS VL: DIQMTQSPSSLSASVGDRVTITCKASQDVSTAVAWYQQKPGKAPKLLIYSASYRYTGVPSRFSGSGSGTDFTLTISSLQPEDFAVYYCQQHYITPLTFGQGTKLEIK | binds | –
MYT13169 (antibody, V domains shown, Sacituzumab HC-LC pairing variant; IgG) VH: QVQLQQSGSELKKPGASVKVSCKASGYTFTNYHMNWVKQAPGQGLKWMGWINTYTGEPTYTDDFKGRFAFSLDTSVSTAYLQISSLKADDTAVYFCARGGFGSSYWYFDVWGQGSLVTVSS VL: DIQLTQSPSSLSASVGDRVSITCKASQDVSIAHAWYQQKPGKAPKLLIYSASYRYTGVPDRFSGSGSGTDFTLTISSLQPEDFAVYYCQQHYITPLTFGAGTKVEIK | – | binds
MYT11660 (antibody, V domains shown, IgG from supernatant; His at HCV position 64; also called datopotamab variant H2 15) VH: QVQLVQSGAEVKKPGASVKVSCKASGYTFTTAGMQWVRQAPGQGLEWMGWINTHSGVPKYAEDHKGRVTISADTSTSTAYLQLSSLKSEDTAVYYCARSGFGSSYWYFDVWGQGTLVTVSS VL: DIQMTQSPSSLSASVGDRVTITCKASQDVSTAVAWYQQKPGKAPKLLIYSASYRYTGVPSRFSGSGSGTDFTLTISSLQPEDFAVYYCQQHYITPLTFGQGTKLEIK | binds | –
MYT11664 (antibody, V domains shown, IgG from supernatant; His at HCV position 98; also called datopotamab variant H3 02) VH: QVQLVQSGAEVKKPGASVKVSCKASGYTFTTAGMQWVRQAPGQGLEWMGWINTHSGVPKYAEDFKGRVTISADTSTSTAYLQLSSLKSEDTAVYYCAHSGFGSSYWYFDVWGQGTLVTVSS VL: DIQMTQSPSSLSASVGDRVTITCKASQDVSTAVAWYQQKPGKAPKLLIYSASYRYTGVPSRFSGSGSGTDFTLTISSLQPEDFAVYYCQQHYITPLTFGQGTKLEIK | binds | –
MYT13166 (antibody, V domains shown, Sacituzumab HC-LC pairing variant; IgG) VH: QVQLQQSGSELKKPGASVKVSCKASGYTFTNYGMNWVKQAPGQGLKWMGWINTYTGEPTYTDDFHGRFAFSLDTSVSTAYLQISSLKADDTAVYFCARGGFGSSYWYFDVWGQGSLVTVSS VL: DIQLTQSPSSLSASVGDRVSITCKASQDVHIAVAWYQQKPGKAPKLLIYSASYRYTGVPDRFSGSGSGTDFTLTISSLQPEDFAVYYCQQHYITPLTFGAGTKVEIK | – | binds
MYT13168 (antibody, V domains shown, Sacituzumab HC-LC pairing variant; IgG) VH: QVQLQQSGSELKKPGASVKVSCKASGYTFTNHGMNWVKQAPGQGLKWMGWINTYTGEPTYTDDFKGRFAFSLDTSVSTAYLQISSLKADDTAVYFCARGGFGSSYWYFDVWGQGSLVTVSS VL: DIQLTQSPSSLSASVGDRVSITCKASQDVSIAHAWYQQKPGKAPKLLIYSASYRYTGVPDRFSGSGSGTDFTLTISSLQPEDFAVYYCQQHYITPLTFGAGTKVEIK | – | binds
MYT11674 (antibody, V domains shown, IgG from supernatant; also called datopotamab variant H3 12) VH: QVQLVQSGAEVKKPGASVKVSCKASGYTFTTAGMQWVRQAPGQGLEWMGWINTHSGVPKYAEDFKGRVTISADTSTSTAYLQLSSLKSEDTAVYYCARSGFGSSYWYHDVWGQGTLVTVSS VL: DIQMTQSPSSLSASVGDRVTITCKASQDVSTAVAWYQQKPGKAPKLLIYSASYRYTGVPSRFSGSGSGTDFTLTISSLQPEDFAVYYCQQHYITPLTFGQGTKLEIK | binds | –
MYT13162 (antibody, V domains shown, Sacituzumab HC-LC pairing variant; IgG) VH: QVQLQQSGSELKKPGASVKVSCKASGYTFTNYGMNWVKQAPGQGLKWMGWINTYTGEPTHTDDFKGRFAFSLDTSVSTAYLQISSLKADDTAVYFCARGGFGSSYWYFDVWGQGSLVTVSS VL: DIQLTQSPSSLSASVGDRVSITCKASQDVHIAVAWYQQKPGKAPKLLIYSASYRYTGVPDRFSGSGSGTDFTLTISSLQPEDFAVYYCQQHYITPLTFGAGTKVEIK | – | binds
MYT13165 (antibody, V domains shown, Sacituzumab HC-LC pairing variant; IgG) VH: QVQLQQSGSELKKPGASVKVSCKASGYTFTNYGMNWVKQAPGQGLKWMGWINTYTGEPTYTDDHKGRFAFSLDTSVSTAYLQISSLKADDTAVYFCARGGFGSSYWYFDVWGQGSLVTVSS VL: DIQLTQSPSSLSASVGDRVSITCKASQDVHIAVAWYQQKPGKAPKLLIYSASYRYTGVPDRFSGSGSGTDFTLTISSLQPEDFAVYYCQQHYITPLTFGAGTKVEIK | – | binds
MYT11675 (antibody, V domains shown) VH: QVQLVQSGAEVKKPGASVKVSCKASGYTFTTAGMQWVRQAPGQGLEWMGWINTHSGVPKYAEDFKGRVTISADTSTSTAYLQLSSLKSEDTAVYYCARSGFGSSYWYFHVWGQGTLVTVSS VL: DIQMTQSPSSLSASVGDRVTITCKASQDVSTAVAWYQQKPGKAPKLLIYSASYRYTGVPSRFSGSGSGTDFTLTISSLQPEDFAVYYCQQHYITPLTFGQGTKLEIK | binds | –
